Data as given in US20240117011A1 (US Dept. of Health and Human Services, published 2024).

What was measured:
[1] = target: full-length SARS-CoV-2 spike, WA-1 / Wuhan-1 (S wt) (SARS-CoV-2, UniProt P0DTC2 14-1273); experiment: cell-based or functional assay
SARS-CoV-2 NTD = SARS-CoV-2 NTD (SARS-CoV-2, UniProt P0DTC2 14-305); experiment: ELISA
SARS-CoV-2 RBD = SARS-CoV-2 RBD (SARS-CoV-2, UniProt P0DTC2 319-541); experiment: ELISA
SARS-CoV-2 S1 = target: T1, SARS-CoV-2 S1 (SARS-CoV-2, UniProt P0DTC2 14-681); experiment: ELISA
T1 construct: range 1-681

Binder	pseudotyped virus neutralization IC50 [1] [µg/mL]	pseudotyped virus neutralization IC80 [1] [µg/mL]	binding result (SARS-CoV-2 NTD)	binding result (SARS-CoV-2 RBD)	binding result (SARS-CoV-2 S1)
A19-82.1 (antibody, V domains shown) VH: QVQLVESGGGVVQPGRSLRLSCVVSGLIFSTYDMHWVRQAPGKGLEWVAVISYDGSYKHYADSVKGRFTISRDSSKNTLYLQMNSLRPEDTAVYYCAKGEGVVAGTGKFDYWGQGTLVTVSS VL: SYVLTQPPSVSVAPGQTARITCGGNNIGSKSVHWYQQKPGQAPVLVVYDDSDRPSGIPERFSGSNSGNTATLTISRVEAGDEADYYCQVWDGSGDPWVFGGGTKLTVL	0.72	5.93	no binding	–	–
A19-61.1 (antibody, V domains shown) VH: QVQLVESGGGVVQPGRSLRLSCAASGFTFSSYAFHWVRQAPGKGLEWVAVISYDGSNQYYADSVKGRFTISRDNSKNTLYLQMNSLRADDTAVYYCARDLAIAVAGTWHYYNGMDVWGQGTTVTVSS VL: DIQMTQSPSSVSASVGDRVIITCRASQGISSWLAWYQQKPGKAPKVLIYDASSLQSGVPSRFSGSGYGTDFTLTISSLQPEDSATYYCQQAKSFPITFGQGTRLEIK	0.0709	0.163	no binding	–	–
A19-1.1 (antibody, V domains shown) VH: QVQLVESGGGVVQPGRSLRLSCAASGFTFTNYAMHWVRQAPGKGLEWVAVISNDGSDKYYADSVKGRFTISRDNSKSTVYLQMSSLRPEDTAVYFCARDPPQVHWSLDYWGQGTLVTVSS VL: QSALTQPPSASGSPGQSVTISCTGTSSDVGDYNYVSWYQHHPGKAPKLIIYDVSKRPSGVPDRFSGSKSGDTASLTVSGLQAEDEADYYCSSYAGNNNAVFGTGTKVTVL	0.126	0.53	no binding	–	–
A23-105.1 (antibody, V domains shown) VH: QVQLVESGGGVVQPGRSLRLSCAASGFTFSNYAIHWVRQAPGKGLEWVAVISYDGSNKYYADSVKGRFTISRDNSKNTLYLEMNSLRAEDMAVYYCARVGPYQYDSSAAFDIWGQGTMVTVSS VL: not shown	0.0889	0.228	no binding	–	–
A19-30.1 (antibody, V domains shown) VH: QVQLVESGGGVVQPGRSLRLSCAASGFTFSNYGMHWVRQAPGKGLEWLAVISYDGSNKYYADSVKGRFTISRDNSKNTLFLQMNSLRAEDTAVYYCAKESQFGELFEALDYWGQGTLVTVSS VL: SYELTQPPSVSVSPGQTARITCSGDALPRKYAFWYQQKSGQAPVLVISEDSKRPSGIPERFSGSSSGTMATLTISGAQVEDEADYYCYSTDSSGNHRVFGGGTKLTVL	–	–	no binding	binds	binds
A23-113.1 (antibody, V domains shown) VH: QVHLEESGGAVVQPGRSLRLSCAASGFTFSSYGMHWVRQAPGKGLEWVAVISHDGSYKYYADSVKGRFTISRDNSKDTLYLQTNSLRAEDTAMYYCAKSYGYWMAYFDYWGQGTLVTVSS VL: DIQMTQSPSSLSASVGDRVTITCRASQDISNYLAWYQQKPGKVPKLLIYAASTLQSGVPSRFSGSGSGTDFTLTISSLQPEDVATYYCQKYNSPWHTFGGGTKVEIK	0.393	7.81	no binding	–	–
A23-80.1 (antibody, V domains shown) VH: QVQLVQSGAEVKKPGASVKVSCKASGYTFTSNGVTWVRQAPGQGLEWMGWISTYNGDTNYAQKLQGRVSMTTDTSTRTVYMELRSLRSDDTAVYYCARVGDAYCSGGSCYHFDYWGQGTLVTVSS VL: EIVMTQSPATLSVSPGERATLSCRASQSVSTNLAWYQQKPGQAPRLLIYGASTRATGIPARFSGSGSGTEFTLTISSLQSEDFALYYCQQYDNWPPEFTFGPGTKVDIK	0.321	–	no binding	–	–
A20-29.1 (antibody, V domains shown) VH: EVQLVESGGGLVQPGRSLRLSCAASGFTFDDYAMHWVRQTPGKGLEWVSGISWNSGDIDYADSVKGRFTISRDNAKNSLYLQMNSLRTEDTALYYCTKGWFGEFFGAGSICDYWGQGTLVTVSS VL: EIVMTQSPATLSVSPGERATLSCRASQSVSNNLAWYQQKPGQAPRLLIYGASTRATGIPARFSGSGSGTEFTLTISSLQSEDFAVYYCQQYNNWPLFGQGTKVEIK	0.348	1.36	–	–	–
A20-36.1 (antibody, V domains shown) VH: QVQLVESGGGVVQPGRSLRLSCAASGFIFSSYGVHWVRQAPGKGLEWVAVIWHDESNKDYADSVKGRFTISRDNSKNTVYLQMNSLRAEDTAMYYCARDGYDFLTGAYELDYWGQGTLVTVSS VL: SYELTQPPSVSVSPGQTARITCSGDALPKQYAYWYQQKPGQAPVVVIYKDSERPSGIPERFSGSSSGTTVTLTISGVQAEDEADYYCQSADSSGTWVFGGGTKLTVL	1.39	3.76	no binding	no binding	–
A20-9.1 (antibody, V domains shown) VH: QVQLVESGGGVVQPGRSLRLSCAASGFTFSSYGMHWVRQAPGKGLEWVAFISYDGSNKYYADSVKGRFTISRDNSKNTLYLQMNSLRAEDTAVYYCAKDYWSVAAGTSWFDPWGQGTLVSVSS VL: SYELTQPPSVSVSPGQTARITCSGDALPKQYAYWYQQKPGQAPVVVIYKDSERPSGIPERFSGSSSGTTVTLTISGVQAEDEADYYCQSADSSGTWVFGGGTKLTVL	1.21	–	no binding	no binding	–
A23-97.1 (antibody, V domains shown) VH: QVQLVESGGGVVQPGGSLRLSCAASGFTFSSFGMHWVRQAPGKGLEWVAFIRYDGSNKYYADSVKGRFTISRDNSKNTLYLQMNSLRAEDTAVYYCAKTELYYYDSSGPLGWGQGTLVTVSS VL: not shown	0.484	5.28	no binding	–	–
A19-46.1 (antibody, V domains shown) VH: QVQLVESGGGVVQPGRSLRLSCAASGFTLSSYGMHWVRQAPGKGLEWVAVISYDGSNKYYVDSVKGRFTISRDNSKNTLYLQMNSLRAEDTAVYYCARGWAYWELLPDYYYGMDVWGQGTTVTVSS VL: QTVVTQEPSFSVSPGGTVTLTCGLSSGSVSTAYFPSWYQQTPGQAPRTLIYGTNTRSSGVPDRFSGSILGNKAALTITGAQADDESDYYCVLYMGRGIVVFGGGTKLTVL	0.0398	0.129	–	–	–
